Test [1] concerns the target T1, Human TNFR1 (Acro Biosystem, TN1-H5222) (human, UniProt P19438 30-211).
T1 construct: Bought protein; also called TNF receptor type 1; CD120a
T1 sequence (looked up): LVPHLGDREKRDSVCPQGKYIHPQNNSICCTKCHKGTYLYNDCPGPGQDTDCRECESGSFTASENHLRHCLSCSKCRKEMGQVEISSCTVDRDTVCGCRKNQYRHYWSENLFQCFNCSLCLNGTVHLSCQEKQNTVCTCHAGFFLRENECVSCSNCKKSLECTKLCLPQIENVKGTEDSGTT
Briefly: ELISA, receptor coated at 1 µg/mL. The method, then:
(§1) Human TNFR2 (Acro Biosystem, TN2-H5227), Human TNFR1 (Acro Biosystem, TN1-H5222), Cynomolgus TNFR2 (Sino Biological, 90102-CO8H) or mouse TNFR2 (R&D systems, 426-R2-050/CF) was coated on high binding polystyrene flat bottom micro-titer plates (Thermo Scientific, 3455) in PBS (PH=7.4, Gibco,10010-031) at 1 μg/mL and 100 μL per well. Plates were incubated at 4° C. overnight.
(§2) Plates were warmed up to room temperature the next day and washed with 200 μL PBS containing 0.1% Tween 20 (Life technologies, 003005) per well for 3 times. Plates were blocked with 200 μL PBS buffer containing 1% BSA (Fisher Scientific, BP1600-100) per well for 1 hour at 37° C. Antibodies was titrated from 5 μg/mL in a 5-fold dilution series, distributed 100 μL per well and incubated at 37° C. for 1 hour. Human IgG1 isotype control (BioxCell, BE0297) was used as negative control. Plates were washed with 200 μL PBS containing 0.1% Tween 20 (Life technologies, 003005) per well for 3 times. Goat anti-Human IgG Fc Secondary Antibody-HRP conjugate (Invitrogen, A18817) were distributed at 0.5μg/mL and 100 μL per well to detect bound antibodies. After 1-hour incubation of secondary antibody at 37° C., plates were washed with 200 μL PBS containing 0.1% Tween 20 (Life technologies, 003005) per well for 3 times. Plates were developed using TMB Substrate Solution (eBioscience, 00-4201-56) and stopped with ELISA stop solution (Invitrogen, SSO4). The level of bound antibodies was determined by reading absorbance at 450 nm. Mouse anti-human TNFR1 antibody (ThermoFisher Scientific, MA1-81005) and goat anti mouse IgG secondary antibody-HRP conjugate (Invitrogen, 62-5520) were used as positive control for human TNFR1 detection. Armenian Hamster anti-mouse TNFR2 antibody (InVivoMab, BE0247) and HRP-Goat anti-Armenian Hamster IgG (H+L) Secondary Antibody (Invitrogen, PA1-32045) were used as positive control for mouse TNFR2 detection.
In general terms: In an ELISA, binding on a coated surface is turned into a signal by an enzyme label.

The target in test [2] is T2, mouse TNFR2 (R&D systems, 426-R2-050/CF) (mouse, UniProt P25119 23-258).
T2 construct: Bought protein
T2 sequence (looked up): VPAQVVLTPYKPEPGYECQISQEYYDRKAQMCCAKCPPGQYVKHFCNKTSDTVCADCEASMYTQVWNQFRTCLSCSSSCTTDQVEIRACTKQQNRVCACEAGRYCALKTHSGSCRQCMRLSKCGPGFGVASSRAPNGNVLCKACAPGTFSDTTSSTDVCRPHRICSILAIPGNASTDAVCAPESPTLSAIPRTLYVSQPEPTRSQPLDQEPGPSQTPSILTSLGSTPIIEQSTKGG
Kind of test: ELISA, receptor coated at 1 µg/mL. The method, then:
as §1, §2

In test [3] the target is T3, rat TNFR2 (R&D systems, 8348-R2-050) (rat, UniProt Q80WY6 23-258).
T3 construct: Bought protein
T3 sequence (looked up): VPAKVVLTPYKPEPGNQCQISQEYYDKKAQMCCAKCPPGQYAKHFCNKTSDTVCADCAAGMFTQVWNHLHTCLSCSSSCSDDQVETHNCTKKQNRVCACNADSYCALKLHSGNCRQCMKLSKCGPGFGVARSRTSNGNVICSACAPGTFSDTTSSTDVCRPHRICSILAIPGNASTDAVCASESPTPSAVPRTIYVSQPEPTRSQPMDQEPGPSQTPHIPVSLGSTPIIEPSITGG
Briefly: ELISA, receptor coated at 1 µg/ml. The method, then: Plates were incubated at 4° C. overnight. Antibodies was titrated from 100 μg/ml in a 5-fold dilution series, and distributed 100 μL, per well and incubated at 37° C. for 1 hour. Human IgG1 isotype control (BioxCell, BE0297) was used as negative control. TNFR2 Polyclonal Antibody (Invitrogen, PAS-80159) and HRP conjugated Goat anti-Rabbit IgG Fc Secondary Antibody (Invitrogen, A16116) were used as positive control for rat TNFR2 detection.

The target of test [4] is T4, His tagged human TNFR2 ECD (Acro Biosystem, TN2-H5227) (human, UniProt P20333 23-257).
T4 construct: extracellular domain; Bought protein; also called TNFR2-His; hTNFR2-His; not shown: His tag
T4 sequence (looked up): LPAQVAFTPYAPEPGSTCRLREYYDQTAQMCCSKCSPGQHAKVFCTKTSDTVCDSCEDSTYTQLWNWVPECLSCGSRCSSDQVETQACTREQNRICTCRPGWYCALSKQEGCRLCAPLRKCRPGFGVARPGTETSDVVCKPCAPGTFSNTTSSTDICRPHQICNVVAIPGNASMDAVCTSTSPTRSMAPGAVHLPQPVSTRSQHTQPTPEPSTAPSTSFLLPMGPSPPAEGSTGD
Kind of test: ELISA, TNFR2-His coated, antibody 0.006 and 0.06 µg/well.

Test [5] has as its target T5, Full length human TNFR2 on Jurkat E6-1 cells (Clone NO.3) (human, UniProt P20333 23-461).
T5 construct: whole, on cells; also called human TNFR2+ Jurkat cells; hTNFR2 Jurkat
T5 sequence (looked up): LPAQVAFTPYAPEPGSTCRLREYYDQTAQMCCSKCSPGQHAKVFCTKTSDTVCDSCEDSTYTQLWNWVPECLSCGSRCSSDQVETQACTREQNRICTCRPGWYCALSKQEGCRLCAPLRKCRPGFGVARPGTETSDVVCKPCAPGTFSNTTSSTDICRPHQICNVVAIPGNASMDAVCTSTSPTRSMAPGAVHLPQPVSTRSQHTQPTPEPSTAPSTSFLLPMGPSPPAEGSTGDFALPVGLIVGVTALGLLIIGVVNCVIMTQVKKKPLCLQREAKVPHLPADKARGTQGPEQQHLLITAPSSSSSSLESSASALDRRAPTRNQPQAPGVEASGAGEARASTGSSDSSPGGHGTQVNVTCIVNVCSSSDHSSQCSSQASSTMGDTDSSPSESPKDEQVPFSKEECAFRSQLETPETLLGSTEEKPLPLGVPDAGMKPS
Kind of test: FACS on human TNFR2+ Jurkat Clone No.3, biotinylated antibody with streptavidin-PE. The protocol:
FACS analysis was used to evaluate the binding of purified anti-TNFR2 antibody candidates produced from example 6 to cell surface TNFR2 target. Anti-human TNFR2 antibodies and negative control IgG were biotinylated using a EZ-Link™ Micro Sulfo-NHS-Biotinylation Kit (Thermo Fisher Scientific, 21925) according to manufacturer's instructions. Biotinylated antibodies (100 μg/mL) were then incubated with Halt™ Protease Inhibitor Cocktail (100X, Thermo Scientific, 1862209) and 80 μg/mL Streptavidin-R-Phycoerythrin (PE) conjugate (Invitrogen, S21388). Antibodies were stored at 4° C. until use. 5×10⁵ Clone No.3 of human TNFR2⁺ Jurkat cells were distributed each well and blocked with human TruStain FcX™ (Biolegend, 422302) for 10 minutes at room temperature before stained with a serially diluted PE conjugated anti-human TNFR2 antibodies or hIgG1 starting from 50 μg/mL in a 5-fold dilution fashion for 30 minutes at 4° C. PE-anti hTNFR2 (Clone MR2-1, Thermo fisher #TNFR7504) was used as positive control. The geometric mean fluorescent intensity was measured on Sony SA3800 cell analyzer. Data were analyzed using Flowjo Software (Tree star Inc).

The target of test [6] is T4, His tagged human TNFR2 ECD (Acro …). Kind of test: monoclonal phage ELISA, hTNFR2-His coated, anti-M13-HRP. The method, then: A 96-well ELISA plate was coated with hTNFR2-His and blocked with PBS buffer containing 2% BSA at […], of pre-blocked phage solution was added to the plate and incubated at 37° C. for 30 min. After the plate was washed twice with PBS buffer containing 0.05% Tween 20, phage binding was detected by HRP-conjugated anti-M13 antibody (GE Healthcare). Top binders were picked and the corresponding phagemids in TG1 cell were isolated and subjected to DNA sequencing to obtain VH/VL sequence. The sequences of TN1-36_VH and TN1-36_VL are set forth as SEQ ID NO: 1 and SEQ ID NO: 2, respectively. Antibody numbering and CDR annotation are performed according to IMGT scheme respectively.

B1: TN36-2 (antibody, human IgG1, V domains shown)
VH: EVQLVESGGGLIQPGGSLRLSCAASGFSLSSSAVSWVRQAPGKGLEWIGAIGSGGTSYYSNWAKSRFTISRDNSKNTLYLQMNSLRAEDTAVYYCARDPNSSDYPYGAYGMGLWGRGTLVTVSS
VL: DIQMTQSPSSLSASVGDRVTITCQVSQSISSYLSWYQQKPGKAPKLLIYYASTLASGVPSRFSGSGSGTDFTLTISSLQPEDFATYYCQQGYITSNVGNAFGGGTKVEIK
notes: Humanized; also called AL2/AL8
On to B1, for which the binding result in test [1] was “no binding (tested: titrated from 5 µg/mL)”; in test [2] it was “no binding (tested: titrated from 5 µg/mL)”; in test [3] it was “no binding (tested: titrated from 100 µg/ml)”; in test [4], “binds”; in test [5] it was “binds”.

B2: TN1-36 scFv on phage (scFv, V domains shown)
VH: QQSVKESEGGLFKPTDTLTLTCTVSGFSLSSSAVSWVRQAPGNGLEWIGAIGSGGTSYYSNWAKSRSTITRDTNLNTVTLKMTSLTAADTATYFCARDPNSSDYPYGAYGMGLWGPGTLVTVSS
VL: ELDLTQTPASVEVAAGGTVTINCQVSQSISSYLSWYQQKPGQPPKLLIYYASTLASGVPSRFSGSGSGTEFTLTISGVQCDDAATYYCQQGYITSNVGNAFGGGTEVVVK
notes: also called TN1-36_VH/TN1-36_VL
B2: in test [6], the binding result is given as “binds”.

Values taken from patent publication US20240043551A1 (ADLAI NORTYE BIOPHARMA, published 2024).
